Assay results published in publication PMC8324832.

Target: Right-Handed Coiled Coil-Nanotube (RHCC-NT) (Staphylothermus marinus)
Assay: crystal structure; RHCC-NT incubated with o-carborane at 50 °C for 1 week, 10 mg/mL in 10 mM TRIS pH 7.5, 154 mM NaCl; vapour diffusion; data at 100 K; 2.2 Å; molecular replacement with PDB 1YBK

“Right-Handed Coiled Coil-Nanotube (RHCC-NT) (domain or fragment)” showed a stoichiometry N of 4.
